Data on one molecule can be found in US6953661 (WESTMEAD HOSPITAL, dated 2005).

For the experiment, the target named is T1, His-KHCstalk (human uKHC amino acid residues 555-772, tagged at the N-terminus with an oligohistidine … (human, UniProt P33176 555-772)).
T1 construct: range 555-772; also the antigen used to raise the chicken anti-uKHC; also called HisKHC555-772; His-KHC fragment; not shown: N-terminal oligohistidine (His) tag
T1 sequence (looked up): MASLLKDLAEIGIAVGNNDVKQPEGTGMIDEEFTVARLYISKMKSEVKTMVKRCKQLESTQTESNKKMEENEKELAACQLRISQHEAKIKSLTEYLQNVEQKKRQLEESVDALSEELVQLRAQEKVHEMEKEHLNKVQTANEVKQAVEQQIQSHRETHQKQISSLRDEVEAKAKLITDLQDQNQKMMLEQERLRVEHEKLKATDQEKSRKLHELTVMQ
Description: pull-down on nickel-activated beads, immunoblot.

B1: untagged US11 (recombinant HSV1 US11 with five additional amino acids MGRLE at the N-terminus, expressed in Escherichia coli) (other)
chain: MGRLEMSQTQPPAPVGPGDPDVYLKGVPSAGMHPRGVHAPRGHPRMISGPPQRGDNDQAAGQCGDSGLLRVGADTTISKPSEAVRPPTIPRTPRVPREPRVPRPPREPREPRVPRAPRDPRVPRDPRDPRQPRSPREPRSPREPRSPREPRTPRTPREPRTARGSV
notes: also called untagged US11 construct
Turning to B1, the binding result is recorded as “no binding”.
